Measurements: PMC2767389

Biological target: C1-100, C-terminally truncated C protein of HPIV3, C-terminally flag-tagged (human parainfluenza virus type 3)
Test: co-IP

Q: How did the L/C ratio turn out when “HPIV3 L protein (viral RNA polymerase), non-tagged (from UniProt P12577 1-2233) (enzyme)” was run?
A: 0.03
